These results are taken from patent US20040115215A1.

The target of assay [1] is Crotalus durissus terrificus venom. Description: ELISA, C.d.t. venom-coated; dilution 1:125.
For assay [2] the target is unchanged. The assay can be described thus: ELISA, C.d.t. venom-coated; dilution 1:25. Background: ELISA stands for enzyme-linked immunosorbent assay.
Assay [3] has the same target. Description: ELISA, C.d.t. venom-coated; dilution 1:500.
For assay [4] the target is unchanged. The assay can be described thus: ELISA, C.d.t. venom-coated; dilution 1:25. The source holds these as a separate data set.
For assay [5] the target is unchanged. Description: ELISA, C.d.t. venom-coated; dilution 1:2,500.
Assay [6] shares this target. Description: ELISA, C.d.t. venom-coated; dilution 1:125. The source holds these as a separate data set.
For assay [7] the target is unchanged. Description: ELISA, C.d.t. venom-coated; dilution 1:625.
For assay [8] the target is unchanged. The assay can be described thus: ELISA, C.d.t. venom-coated; dilution 1:62,500.
For assay [9] the target is unchanged. The assay can be described thus: ELISA, C.d.t. venom-coated; dilution 1:3125.
Assay [10] has the same target. The assay can be described thus: ELISA, C.d.t. venom-coated; dilution 1:625. The source holds these as a separate data set.
The target is the same in assay [11]. The assay can be described thus: ELISA, C.d.t. venom-coated; dilution 1:3125. The source holds these as a separate data set.
Assay [12] has the same target. The assay can be described thus: ELISA, C.d.t. venom-coated; dilution 1:5.
For assay [13] the target is unchanged. The assay can be described thus: ELISA, C.d.t. venom-coated; dilution 1:312,500.
For assay [14] the target is unchanged. The assay can be described thus: ELISA, C.d.t. venom-coated; dilution 1:12,500.
Assay [15] has the same target. Description: ELISA, C.d.t. venom-coated; undiluted.

Consider “preimmune IgY (from unimmunized hens or supermarket eggs) (antibody)”, for which the absorbance in [1] was 0.003 OD; in [2], 0 OD; in [4] it was 0.016 OD; in [6], under 0 OD; in [7] it was 0 OD; in assay [9], under 0 OD. In addition, the absorbance is under 0 OD in assay [10], 0.002 OD in assay [11], under 0 OD in [12] and 0.003 OD in assay [15]. Further, the absorbance (412 nm filter) came out at 0.005 OD in assay [3]; 0.004 OD in [5]; 0.001 OD in assay [8]; 0.01 OD in assay [13]; 0.001 OD in [14].
